This experiment deals with Archeoglobus fulgidus HypB (A. fulgidus). Briefly: SEC-MALS; SEC/LS, Superdex-75 HR10/30, 100 uL at 3 mg/mL, with 1 mM GMPPNP (GTP analog), 50 mM Tris pH 7.5, 0.1 M NaCl, 5 mM MgCl2, 1 mM TCEP, room temperature; monomer to dimer.

Substance “Archeoglobus fulgidus HypB (natural protein)” registered a stoichiometry N of 2.

Broadly, the stoichiometry N is the number of molecules, sites or subunits per partner or assembly.

The record behind these values is publication PMC3262836.
